This is an account of results in the nanobody polyreactivity screen of Harvey et al. (2022).

A short description of the series: yeast display, Sf9 membrane polyspecificity reagent, FACS + sequencing; frameworks hold sequencing errors. The method, boiled down: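 Galactose induction of a Saccharomyces cerevisiae BJ5465 synthetic nanobody display library ran 36–48 hours. The cells were then stained for 1 hour at 4 °C with 10% biotinylated, detergent-solubilized Sf9 membrane reagent, pulled down on streptavidin microbeads and FACS-sorted into low and high (top ~1%) gates on expression and reagent-binding fluorescence. Labels for polyreactivity follow the gate of origin.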
Take “QVQLVESGGGLVQAGGSLRLSCAASGSIFGGYALGWYRQAPGKERELVAAISKTGGTTYYADSVKGRFTISRDNALNTVYLQMNSLKPEDTAVYYWNAPKRYYGSAYGYGYWGQGTQVTVSS”: the “polyreactivity (PSR sort gate)” value is “high polyreactivity”.
For the sequence “QVQLVESGGGLVQAGGSLRLSCAASGSIFGGYALGWYRQAPGNERELVAAITSSGGRTYYADSVKGRFTISRDNAKNTVYLQMNSLKPEDTAVYYCAARYTRWRYIYKDYDYWGQGTQVTVSS”, the “polyreactivity (PSR sort gate)” value is reported as “high polyreactivity”.
In the case of “QVQLVESGGGLVQAGGSLRLSCAASGSIFGGYAMGWYRQAPGKERELVAAISSSGGSTYYADSVKGRFTISRDNAKNTVYLQMHSLKPEDTAVYYCASSYHGRSYHLNYWGQGTQVTVSS” it was “high polyreactivity”; in that of “QVQLVESGGGLVQAGGSLRLSCAASGSIFGGYAMGWYRQAPGKERELVAAISYRGASTYYADSVKGRFTISRDNAKNTVYLQMNSLKPEDTAVYYCAARHDKRRQYYVGQSAFDYWGQGTQVTVSS”, “low polyreactivity”.
Next, “QVQLVESGGGLVQAGGSLRLSCAASGSIFGGYAMGWYRQAPGKERELVAAITSSGGRTYYADSVKGRFTISRDNAKNTVDLQMNSLKPEDTAVYYCAASPNYYYYYPMYYWGQGTQVTVSS”: “high polyreactivity”; “QVQLVESGGGLVQAGGSLRLSCAASGSIFGGYPMGWYRQAPGKERELVAAITYSAGNTYYADSVKGRFTISRDNAKNTFYVQMNSLKPEDTAVYYCNAVTKHRAITNMDYWGQGTQVTVSS”: “high polyreactivity”.
In the case of “QVQLVESGGGLVQAGGSLRLSCAASGSIFGGYSMGWYRQAPGKEMELVARISSGGSTYYADSVKGRFTISRDNAKNTVYLQMNSLKQEDTAVYYCNAKTYTWWGLYEYWGQGTQVTVSS” it was “high polyreactivity”; in that of “QVQLVESGGGLVQAGGSLRLSCAASGSIFGGYTMGWYRQAPGKERELVAAISRRGGNTYYADSVKGRFTISRDNAKNTVYLQMNSMKPEDSAVYYCAVRWPSARIPVKLDYWGQGTQVNVSS”, “high polyreactivity”.
Consider “QVQLVESGGGLVQAGGSLRLSCAASGSIFGGYVMGWFRQAPGKERELVAAITSNGGITYADSVKGRFTISRDNAKNTVYLQMHSLKPEDTAVYYCAADSWFYGGEYKFGYYWGQGTQVTVSS”, for which the “polyreactivity (PSR sort gate)” value is “low polyreactivity”.
Regarding “QVQLVESGGGLVQAGGSLRLSCAASGSIFGHYAMGWYRPAPGKERELVAGISSSSGGRTYYADSVKGRFTISRDNAKNTVYLQMNSLKPEDTAVDYCAAVYSVQVSRRAKYYYWGQGTQVTVSS”, the “polyreactivity (PSR sort gate)” value is listed as “high polyreactivity”.
Next, “QVQLVESGGGLVQAGGSLRLSCAASGSIFGINAMGWYRQAPGKERELVAAISWRGDSTSYADSVKGRFTISRDNAKNTVYLQMNSLKPEDTAVYYCAKGGTRFYVVGETYYYWGQGTQVTVSS”: “low polyreactivity”; “QVQLVESGGGLVQAGGSLRLSCAASGSIFGINVMGWYRQAPGKERELVAAISRSGSSTYYADSVKGRFTISRDNAKNTVYLQMNSLKPEDTAVYYCNADRSTWTVLVWEYDYWGQGTQVTVSS”: “low polyreactivity”; “QVQLVESGGGLVQAGGSLRLSCAASGSIFGIYAMGWYRQAPGKERELVAAIRRGGSTYYADSVKGRFTISRDNAKNTVYLQMNSLKPEDTAVYYCAARKYRLWGKGVDYDYWGQGTQVTVSS”: “high polyreactivity”.
In the case of “QVQLVESGGGLVQAGGSLRLSCAASGSIFGIYAMGWYRQAPGKERELVAAIRRGGSTYYADSVKGRFTISRDNAKNTVYLQMNSLKPEDTAVYYCNTDYHRLLRSRPKYYYWGQGTQVTVSS”, the “polyreactivity (PSR sort gate)” value is listed as “high polyreactivity”.
With “QVQLVESGGGLVQAGGSLRLSCAASGSIFGIYAMGWYRQAPGKERELVADITYSGGSTYYADSVKGRFTISRDNAKNTVYLQMNSLKPEDTAVYYCAADWVYVNAWTGGWTYEYWGQGTQVTVSS”, the “polyreactivity (PSR sort gate)” value is reported as “high polyreactivity”.
In the case of “QVQLVESGGGLVQAGGSLRLSCAASGSIFGKNAMGWYRQAPGKERELVAAISATGSRTYYADSVKGRFTISRDNAKNTVYLQMISLKPEETAVYSCTKLVRGVRPEEYDYGGQGTQVTVSS” it was “high polyreactivity”; in that of “QVQLVESGGGLVQAGGSLRLSCAASGSIFGKYAMGWYRQAPGKERELVAAISERTGRTYYADSVKGRFTISRDNAKNTVYLQMNSLKPEDTAVYYCNVVPLDSGWSTYGYDYWGQGTQVTVSS”, “high polyreactivity”; in that of “QVQLVESGGGLVQAGGSLRLSCAASGSIFGKYTMGWYRQAPGKEREFVAAITSVGSTNYADSVKVRFTISRDNAKNTVYLQMNSLKPVDTAVYYCAADTIGYHYWYDYWGQGTQVTVSS”, “low polyreactivity”.
In the case of “QVQLVESGGGLVQAGGSLRLSCAASGSIFGKYVMGWYRQAPGKERELVAALTFGGGSTYYADSVKGRFTISRDNAKNTVSLQMNTLKPEETAVYYCAAKSYDDRLYRRPRDYWGQGTQVTLSS” it was “high polyreactivity”; in that of “QVQLVESGGGLVQAGGSLRLSCAASGSIFGLNALGWSRQAPGKERELVAGITWSGGSSTYYADSVKGRFTISRDYAKNTVYLQMNSLKPEDTAVYNCAARRVFIPYYVRFYYWGQGTQVTVSS”, “high polyreactivity”.
For “QVQLVESGGGLVQAGGSLRLSCAASGSIFGLNAMGWYRQAPGKEREFVAAIDKNGAGTYYADSVKGRFTISRDNAKNTVYLQMNSLKPEDTAVYYCAAEYRSYGWYGYVVEYDYWGLGTQVTVSS”, the “polyreactivity (PSR sort gate)” value was “high polyreactivity”.
Next, “QVQLVESGGGLVQAGGSLRLSCAASGSIFGLNAMGWYRQAPGKERELVAAIDIIGGSTYYADSVKGRFTISRDNAKNTVYLQMNSLKPEDTAVYYCAAEADFWRFVEYDYWGQGSQVTVSS”: “low polyreactivity”; “QVQLVESGGGLVQAGGSLRLSCAASGSIFGLNAMGWYRQAPGKERELVAAINSDGDTYYADSVKGRFTISRDNAKNTVCLQMNSLKPEDTAVYYCAALQRRDHNGDYWGQGTQVTVSS”: “low polyreactivity”; “QVQLVESGGGLVQAGGSLRLSCAASGSIFGLYAMGWYRQAPGKERELVAAISSRGSSTYYADSVKGRFTISRDNAKNTVYIQMNSLKPEDTAVYYCNAYPFSRSVQLRDYWGQGTQVTVSS”: “low polyreactivity”.
As for “QVQLVESGGGLVQAGGSLRLSCAASGSIFGLYAMGWYRQAPGKERELVAAITASDGSTYYADSVKGRFTISRDNAKNTVYLQMNSLKPEDTAVYYCNADAYSGYFLFDYWGQGTQVTVSS”, the “polyreactivity (PSR sort gate)” value is given as “low polyreactivity”.
For “QVQLVESGGGLVQAGGSLRLSCAASGSIFGLYGMGWYRQAPGKERELVAAISSGGTTNYADSVKGRFTISRDNAKNTVYLQMNSLKPEDTAVYYCAARYSRGAYIYYGWYGYGYWGQGTQVTVSS”, the “polyreactivity (PSR sort gate)” value is given as “low polyreactivity”.
In the case of “QVQLVESGGGLVQAGGSLRLSCAASGSIFGNKAMGWYRQAPGKERELVAASSNDGDNSYYADSVKGRFTISRDKAKNTVYLQMNSLKPEDTAVYYCAADYVGVTSVRYDYWGQGTEVTVSS” it was “low polyreactivity”; in that of “QVQLVESGGGLVQAGGSLRLSCAASGSIFGNNAMGWYRQAPGKERELVAAISGSGGTRYADSVKGRFTISRDNAKNTVYFQLNSLKPEDTAVYYCSADDSWGGFHSPKAIGYDYWGQGTQVTVSS”, “low polyreactivity”.
In the case of “QVQLVESGGGLVQAGGSLRLSCAASGSIFGNYVMGWYRQAPGKERELVAAITSDGSTYYADSVKGRFTISRDNAKNTVYLQMNSLKPEDTAVYYCNAVYEGLQSRWYKGGLYSFDYWGQGTQVTVSS”, the “polyreactivity (PSR sort gate)” value is given as “low polyreactivity”.
In the case of “QVQLVESGGGLVQAGGSLRLSCAASGSIFGPNPMGWYRQAPGKERELVAAISWTGGRTYYADSVKGRFTISRDNAKNTVYLQMNSLKPEDTAVYYCAAARYLSGGYEKYDYWGQGTQVTVST” it was “low polyreactivity”.
In the case of “QVQLVESGGGLVQAGGSLRLSCAASGSIFGPYAMGWYRQAPGKERELVAAISRGSRTNYADSVKGRFTISRDNAKNTVYLQMNSLKPEDTAVYYCAARYVWRSTHHRGSTYDYWGQGTQVTVSS” it was “high polyreactivity”; in that of “QVQLVESGGGLVQAGGSLRLSCAASGSIFGPYAMGWYRQAPGKERELVATINRGVTTYYADSVKGRFTISRDNAKNTVYLQMNSLKPEDTAVYYCAARTYAKRPGYYWGQGTQVTVSS”, “high polyreactivity”; in that of “QVQLVESGGGLVQAGGSLRLSCAASGSIFGPYAMGWYRQAPGKEREVVAAINSGGSTNYADSVKGRFTISRDNAKNTVYLQMNSLKPEDTAVYYCNAADERSQGWVGYDHWGQCTQVTVSS”, “low polyreactivity”.
In the case of “QVQLVESGGGLVQAGGSLRLSCAASGSIFGQYAMGWYRQAPGKEREYVAAISWRGTSTYYADSVKGRFTISRDNAKNTVYLQMNSLKPEDTAVYYCAGRYVKPSRYKYNYWGQGTQVTVSS” it was “high polyreactivity”; in that of “QVQLVESGGGLVQAGGSLRLSCAASGSIFGRNAMGWYRQAPGKEREFVAAISQRGGRTYYADSVKGRFTISRDNAKNTVYLQMNSLKPEDTAVYYCAATYTRVPNRFYYWGQGTQVTVSS”, “high polyreactivity”.
Turning to “QVQLVESGGGLVQAGGSLRLSCAASGSIFGRNAMGWYRQAPGKERELVAAISSRSDRTYYADSVKGRFTISRDNAKNTVYLQMNSLKPEDTAVYYCAARYGSSQNGYKSDYWGQGTQVTLSS”, the “polyreactivity (PSR sort gate)” value is recorded as “high polyreactivity”.
Turning to “QVQLVESGGGLVQAGGSLRLSCAASGSIFGRNAMGWYRQAPGKERELVARISSRGGSTYYADSVKGRFTISRDNAKNTVYLQLISLKREDTALYYCAAEGGDRYALYTFYTWGQGTQVTVSS”, the “polyreactivity (PSR sort gate)” value is recorded as “high polyreactivity”.
With “QVQLVESGGGLVQAGGSLRLSCAASGSIFGRNAMGWYRQAPGKERELVAVISKRSGNTYYADSVKGRFTISRDNAKNTVYLQMNSLKPEDTAVYYCNAVDQKLLRYDYGGQGTQVTVSS”, the “polyreactivity (PSR sort gate)” value is listed as “high polyreactivity”.
In the case of “QVQLVESGGGLVQAGGSLRLSCAASGSIFGRNAMGWYRQAPGREREFVATITSRGGRTYYADSVKGRFTISRDNAKNTVYLQMNSLKPEDTAVYYCAADTYISTLKKYRLGDYWGQGTQVTVSS” it was “low polyreactivity”; in that of “QVQLVESGGGLVQAGGSLRLSCAASGSIFGRNTMGWYRQAPGKERELVAAIDSSGGSTYYADSVKGRFTISRDNAKNTVYLQMNSLKPEDTAVYYCAAESRYATKSGYGLVLYYYWGQGTQVTVSS”, “high polyreactivity”.
